Here are results for 4 molecules from paper PMC13230913 (Nature Communications, 2026).

Data set [1] addresses T1, stabilized, soluble prefusion measles virus F ectodomain (F_ECTO E170G, E455G, residues 1-495) (Measles virus strain Ichinose-B95a, stabilised).
T1 chain 1: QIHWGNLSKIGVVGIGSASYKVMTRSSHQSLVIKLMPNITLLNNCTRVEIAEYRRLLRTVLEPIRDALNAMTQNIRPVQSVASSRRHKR
T1 chain 2: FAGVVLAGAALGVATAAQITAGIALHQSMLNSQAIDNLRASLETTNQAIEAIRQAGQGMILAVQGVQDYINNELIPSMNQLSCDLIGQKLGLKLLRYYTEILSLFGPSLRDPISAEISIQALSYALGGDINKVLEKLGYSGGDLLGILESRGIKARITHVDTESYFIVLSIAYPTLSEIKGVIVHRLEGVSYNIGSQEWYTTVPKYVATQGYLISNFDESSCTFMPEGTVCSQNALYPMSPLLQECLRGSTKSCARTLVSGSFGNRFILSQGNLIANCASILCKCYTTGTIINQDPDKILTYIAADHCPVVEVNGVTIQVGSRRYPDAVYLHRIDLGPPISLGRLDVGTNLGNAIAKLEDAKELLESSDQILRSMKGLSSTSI
As to the kind of experiment: SPR.

For data set [2], the target named is measles virus B3 F protein with L454W (destabilized prefusion conformation), on cells (Measles virus genotype B3).
Data set [3] addresses T1, stabilized, soluble prefusion measles …. As to the kind of experiment: cell-based or functional assay.

B1: chimeric monoclonal antibody 77.1 (mouse Fab / human Fc) (antibody, V domains shown)
VH: DVQLQESGPGLVKPSQSLSLTCTVSGYSITSDYAWNWIRQFPGNKLEWMGYISYTLTTGYNPSLKSRISITRDSSKNQFFLQLNSVTTEDTATYYCARSGWLLPYWYFDVWGAGTTVTVSS
VL: DVQITQSPSYLAASPGETITINCRASKSISKYLAWYQEKPGKTNELLIYSGSTLQSGIPSRFRGSGSGTDFTLTISSLEPEDFAMYYCQQHNEYTLTFGGGTKLELK
Usually Kd stands for a measure of binding affinity in units of concentration. The low end stands for tighter binding, the high end for weaker binding. A word on the koff: it is the first-order rate constant of dissociation. Low values mean slow dissociation, high ones fast dissociation. Usually kon stands for the rate constant with which the complex forms. In data set [1], B1 came in with a Kd of 1.71 nM, an off-rate constant (koff) of 0.000207 s⁻¹ and a kon of 121000 ± 2000 M⁻¹ s⁻¹.

B2: chimeric monoclonal antibody H8 (mouse Fab / human Fc) (antibody, V domains shown)
VH: QVQLQQSGAELVRPGTSVKISCKASGYTFINYWLGWVKQRPGHGLEWIGDIYPGGGHTKYNEKFKGKATLTADTSSSTAYMQLSSLTSEDSAVFFCARSGVGSSYYYWGQGTTLTVSS
VL: DIVLTQSPASLAVSLGQRATISCRASKSVSSSGYSFLHWYQQKPGQPPKLLIYLASNLDSGVPARFSGSGSGTDFTLNIHPVEEEDATTYYCQHSWELPTFGGGTKLEIK
In turn, B2 showed an IC90 of plaque reduction neutralization test (PRNT), virus B3 F-L454W in data set [2] of 23 nM. In data set [1], this molecule showed a Kd of 3.17 nM, a koff of 7.48e-05 s⁻¹ and a kon of 23600 ± 810 M⁻¹ s⁻¹.

B3: Y10F Fab (Fab, V domains shown)
VH: QVQLQQSGAELMKPGASVKISCKAAGYTFSNYWIEWVKQRPGHGLEWIGEILPGNSYTNYNEKFRGKATITADTSSNTAYMQLSSLTSEDSAVYYCASPLSGNYVRFAYWGQGTLVTVST
VL: QIVLSQSPAILSASPGEKVTMTCRATSSVVYMHWYQQKPGSSPKPWIYATSNLASGVPTRFSGSGSGTSYSLTISRVEAEDAATYYCQQWNSNPYTFGGGTKLEIK
As to B3, in data set [3], the “melting temperature of F_ECTO with Fab by nanoDSF (F_ECTO alone 47.2 °C)” value is 55.5 °C.

B4: chimeric monoclonal antibody Y10F (mouse Fab / human Fc) (antibody, V domains shown)
VH: B3 VH
VL: B3 VL
In data set [1], B4 gave a Kd of 99.9 nM, an off-rate constant (koff) of 0.00179 s⁻¹ and a kon of 17900 ± 300 M⁻¹ s⁻¹.
